# T1: DauA fused to the T18 or T25 domain of adenylate cyclase (E. coli, UniProt P0AFR2 1-559)
# T1 construct: C4-dicarboxylic acid transporter DauA (previously YchM), E. coli; Stood with T18 and with T25 in reciprocal pairings; one molecule for both; also called DauA-T18; DauA-T25; source: bacterial two-hybrid fusion (pUT18 or pKNT25), in E. coli BTH101 (cyaA-); not shown: T18 or T25 domain of Bordetella pertussis adenylate cyclase CyaA, C-terminal, kept
# T1 sequence (looked up): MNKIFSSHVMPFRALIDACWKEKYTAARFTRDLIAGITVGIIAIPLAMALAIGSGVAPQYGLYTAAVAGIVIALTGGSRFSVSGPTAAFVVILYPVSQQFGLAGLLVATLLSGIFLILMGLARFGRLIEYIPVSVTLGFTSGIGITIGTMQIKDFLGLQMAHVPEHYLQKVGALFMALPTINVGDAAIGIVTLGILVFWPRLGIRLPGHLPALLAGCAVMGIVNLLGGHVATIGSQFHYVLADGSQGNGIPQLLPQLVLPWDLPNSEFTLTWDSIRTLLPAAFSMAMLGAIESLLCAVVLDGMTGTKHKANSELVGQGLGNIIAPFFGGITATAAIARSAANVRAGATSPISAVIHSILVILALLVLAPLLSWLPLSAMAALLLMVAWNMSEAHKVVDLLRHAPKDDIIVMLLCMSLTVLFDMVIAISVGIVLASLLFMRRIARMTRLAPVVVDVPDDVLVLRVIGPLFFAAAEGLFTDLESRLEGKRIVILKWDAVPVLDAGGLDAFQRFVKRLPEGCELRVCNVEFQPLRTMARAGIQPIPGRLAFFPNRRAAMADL
# T2: DctA fused to the T18 or T25 domain of adenylate cyclase (E. coli, UniProt P0A830 1-428)
# T2 construct: Aerobic C4-dicarboxylate transport protein DctA, E. coli; also called DctA-T25; DctA-T18; source: bacterial two-hybrid fusion (pUT18 or pKNT25), in E. coli BTH101 (cyaA-); not shown: T18 or T25 domain of Bordetella pertussis adenylate cyclase CyaA, C-terminal, kept
# T2 sequence (looked up): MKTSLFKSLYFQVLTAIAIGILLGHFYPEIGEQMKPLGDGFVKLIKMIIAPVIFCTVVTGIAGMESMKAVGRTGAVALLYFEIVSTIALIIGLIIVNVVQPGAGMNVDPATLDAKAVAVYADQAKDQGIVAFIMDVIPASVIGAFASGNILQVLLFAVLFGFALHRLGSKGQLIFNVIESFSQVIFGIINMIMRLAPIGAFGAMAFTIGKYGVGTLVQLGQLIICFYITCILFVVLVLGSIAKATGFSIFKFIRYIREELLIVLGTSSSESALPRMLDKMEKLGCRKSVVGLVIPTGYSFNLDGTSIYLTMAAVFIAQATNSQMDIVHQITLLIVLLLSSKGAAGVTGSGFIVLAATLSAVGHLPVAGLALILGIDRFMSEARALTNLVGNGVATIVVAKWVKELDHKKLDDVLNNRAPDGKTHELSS
# B1: AmtB (ammonium transporter), two-hybrid fusion (natural protein, UniProt P69681 1-428, looked up)
# chain: MKIATIKTGLASLAMLPGLVMAAPAVADKADNAFMMICTALVLFMTIPGIALFYGGLIRGKNVLSMLTQVTVTFALVCILWVVYGYSLAFGEGNNFFGNINWLMLKNIELTAVMGSIYQYIHVAFQGSFACITVGLIVGALAERIRFSAVLIFVVVWLTLSYIPIAHMVWGGGLLASHGALDFAGGTVVHINAAIAGLVGAYLIGKRVGFGKEAFKPHNLPMVFTGTAILYIGWFGFNAGSAGTANEIAALAFVNTVVATAAAILGWIFGEWALRGKPSLLGACSGAIAGLVGVTPACGYIGVGGALIIGVVAGLAGLWGVTMLKRLLRVDDPCDVFGVHGVCGIVGCIMTGIFAASSLGGVGFAEGVTMGHQLLVQLESIAITIVWSGVVAFIGYKLADLTVGLRVPEEQEREGLDVNSHGENAYNA
# notes: Ammonium transporter AmtB; source: bacterial two-hybrid fusion, in E. coli BTH101 (cyaA-)
# B2: DcuS fused to the T18 or T25 domain of adenylate cyclase (natural protein, E. coli, UniProt P0AEC8 1-543, looked up)
# chain: MRHSLPYRMLRKRPMKLSTTVILMVSAVLFSVLLVVHLIYFSQISDMTRDGLANKALAVARTLADSPEIRQGLQKKPQESGIQAIAEAVRKRNDLLFIVVTDMQSLRYSHPEAQRIGQPFKGDDILKALNGEENVAINRGFLAQALRVFTPIYDENHKQIGVVAIGLELSRVTQQINDSRWSIIWSVLFGMLVGLIGTCILVKVLKKILFGLEPYEISTLFEQRQAMLQSIKEGVVAVDDRGEVTLINDAAQELLNYRKSQDDEKLSTLSHSWSQVVDVSEVLRDGTPRRDEEITIKDRLLLINTVPVRSNGVIIGAISTFRDKTEVRKLMQRLDGLVNYADALRERSHEFMNKLHVILGLLHLKSYKQLEDYILKTANNYQEEIGSLLGKIKSPVIAGFLISKINRATDLGHTLILNSESQLPDSGSEDQVATLITTLGNLIENALEALGPEPGGEISVTLHYRHGWLHCEVNDDGPGIAPDKIDHIFDKGVSTKGSERGVGLALVKQQVENLGGSIAVESEPGIFTQFFVQIPWDGERSNR
# notes: Membrane embedded sensor histidine kinase DcuS, E. coli; also called DcuS-T18; DcuS-T25; source: bacterial two-hybrid fusion (pUT18 or pKNT25), in E. coli BTH101 (cyaA-); not shown: T18 or T25 domain of Bordetella pertussis adenylate cyclase CyaA, C-terminal, kept
# Columns and labels:
# [1] = molecular target: T1, DauA fused to the T18 or T25 domain of …; assay: two-hybrid; bacterial two-hybrid (BTH): T18 and T25 fusions co-transformed in E. coli BTH101 (cyaA-), grown overnight in LB at 30 °C; beta-galactosidase activity; background below 150 Miller units; the reporter strain expresses chromosomal DctA and DcuS; conditions: partners not purified
# [2] = molecular target: T2, DctA fused to the T18 or T25 domain of …; assay: as above; conditions: partners not purified
Binder,beta-galactosidase activity [1],beta-galactosidase activity [2]
B1,< 150 Miller units,–
B2,–,252 Miller units

# From publication PMC5703999, “The E. coli dicarboxylic acid transporters DauA act as a signal transducer by interacting with the DctA uptake system” (Scientific Reports, 2017)
